Data published in the supplement of paper PMC5998384.

What was measured:
[1] = test system: HeLa Kyoto; assay: solubility in G1/S (NP-40 vs SDS abundance) (log2 ratio); higher = more soluble; details: cell cycle stage: G1/S
[2] = test system: HeLa Kyoto; assay: solubility change mitosis vs G1/S (difference of NP-40 vs SDS log2 ratios) (log2 ratio difference); higher = more soluble in mitosis
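For solubility change mitosis vs G1/S (difference of NP-40 vs SDS log2 ratios) in this document: synchronized HeLa Kyoto cells (double thymidine block for G1/S, nocodazole release for mitosis), protein amounts in NP-40 versus SDS lysates quantified by mass spectrometry, three biological replicates.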
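For solubility in G1/S (NP-40 vs SDS abundance) in this document: HeLa Kyoto cells arrested at G1/S by double thymidine block, proteins quantified by TMT10plex mass spectrometry in mild NP-40 versus SDS extracts, three biological replicates.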

Sequence	solubility in G1/S (log2) [1]	solubility change mitosis (log2) [2]
MPALACLRRLCRHVSPQAVLFLLFIFCLFSVFISAYYLYGWKRGLEPSADAPEPDCGDPPPVAPSRLLPLKPVQAATPSRTDPLVLVFVESLYSQLGQEVVAILESSRFKYRTEIAPGKGDMPTLTDKGRGRFALIIYENILKYVNLDAWNRELLDKYCVAYGVGIIGFFKANENSLLSAQLKGFPLFLHSNLGLKDCSINPKSPLLYVTRPSEVEKGVLPGEDWTVFQSNHSTYEPVLLAKTRSSESIPHLGADAGLHAALHATVVQDLGLHDGIQRVLFGNNLNFWLHKLVFVDAVAFLTGKRLSLPLDRYILVDIDDIFVGKEGTRMKVEDVKALFDTQNELRAHIPNFTFNLGYSGKFFHTGTNAEDAGDDLLLSYVKEFWWFPHMWSHMQPHLFHNQSVLAEQMALNKKFAVEHGIPTDMGYAVAPHHSGVYPVHVQLYEAWKQVWSIRVTSTEEYPHLKPARYRRGFIHNGIMVLPRQTCGLFTHTIFYNEYPGGSSELDKIINGGELFLTVLLNPISIFMTHLSNYGNDRLGLYTFKHLVRFLHSWTNLRLQTLPPVQLAQKYFQIFSEEKDPLWQDPCEDKRHKDIWSKEKTCDRFPKLLIIGPQKTGTTALYLFLGMHPDLSSNYPSSETFEEIQFFNGHNYHKGIDWYMEFFPIPSNTTSDFYFEKSANYFDSEVAPRRAAALLPKAKVLTILINPADRAYSWYQHQRAHDDPVALKYTFHEVITAGSDASSKLRALQNRCLVPGWYATHIERWLSAYHANQILVLDGKLLRTEPAKVMDMVQKFLGVTNTIDYHKTLAFDPKKGFWCQLLEGGKTKCLGKSKGRKYPEMDLDSRAFLKDYYRDHNIELSKLLYKMGQTLPTWLREDLQNTR [NDST1]	-0.0442	-0.0111
MIPLEKPGSGGSSPGATSGSGRAGRGLSGPCRPPPPPQARGLLTEIRAVVRTEPFQDGYSLCPGRELGRGKFAVVRKCIKKDSGKEFAAKFMRKRRKGQDCRMEIIHEIAVLELAQDNPWVINLHEVYETASEMILVLEYAAGGEIFDQCVADREEAFKEKDVQRLMRQILEGVHFLHTRDVVHLDLKPQNILLTSESPLGDIKIVDFGLSRILKNSEELREIMGTPEYVAPEILSYDPISMATDMWSIGVLTYVMLTGISPFLGNDKQETFLNISQMNLSYSEEEFDVLSESAVDFIRTLLVKKPEDRATAEECLKHPWLTQSSIQEPSFRMEKALEEANALQEGHSVPEINSDTDKSETKESIVTEELIVVTSYTLGQCRQSEKEKMEQKAISKRFKFEEPLLQEIPGEFIY [STK17A]	0.0848	-0.0546
MAAPRWSASGPWIRGNGQGCGSLFTLVSKPFCAAAAASTAINAQRLAEKLRAQKREQDTKKEPVSTNAVQRRVQEIVRFTRQLQRVHPNVLAKALTRGILHQDKNLVVINKPYGLPVHGGPGVQLCITDVLPILAKMLHGHKAEPLHLCHRLDKETTGVMVLAWDKDMAHQVQELFRTRQVVKKYWAITVHVPMPSAGVVDIPIVEKEAQGQQQHHKMTLSPSYRMDDGKMVKVRRSRNAQVAVTQYQVLSSTLSSALVELQPITGIKHQLRVHLSFGLDCPILGDHKYSDWNRLAPQKLSVGTLKKLGLEQSKARYIPLHLHARQLILPALGSGKEELNLVCKLPRFFVHSLHRLRLEMPNEDQNENNEAKCLGAQ [RPUSD4]	-0.22	0.0788
MSRQAKDDFLRHYTVSDPRTHPKGYTEYKVTAQFISKKDPEDVKEVVVWKRYSDFRKLHGDLAYTHRNLFRRLEEFPAFPRAQVFGRFEASVIEERRKGAEDLLRFTVHIPALNNSPQLKEFFRGGEVTRPLEVSRDLHILPPPLIPTPPPDDPRLSQLLPAERRGLEELEVPVDPPPSSPAQEALDLLFNCESTEEASGSPARGPLTEAELALFDPFSKEEGAAPSPTHVAELATMEVESARLDQEPWEPGGQEEEEDGEGGPTPAYLSQATELITQALRDEKAGAYAAALQGYRDGVHVLLQGVPSDPLPARQEGVKKKAAEYLKRAEEILRLHLSQLPP [SNX15]	0.365	-0.104
MEGDGVPWGSEPVSGPGPGGGGMIRELCRGFGRYRRYLGRLRQNLRETQKFFRDIKCSHNHTCLSSLTGGGGAERGPAGDVAETGLQAGQLSCISFPPKEEKYLQQIVDCLPCILILGQDCNVKCQLLNLLLGVQVLPTTKLGSEESCKLRRLRFTYGTQTRVSLALPGQYELVHTLVAHQGNWETIPEEDLEVQENNEDAAHVLAELEVTMHHALLQEVDVVVAPCQGLRPTVDVLGDLVNDFLPVITYALHKDELSERDEQELQEIRKYFSFPVFFFKVPKLGSEIIDSSTRRMESERSPLYRQLIDLGYLSSSHWNCGAPGQDTKAQSMLVEQSEKLRHLSTFSHQVLQTRLVDAAKALNLVHCHCLDIFINQAFDMQRDLQITPKRLEYTRKKENELYESLMNIANRKQEEMKDMIVETLNTMKEELLDDATNMEFKDVIVPENGEPVGTREIKCCIRQIQELIISRLNQAVANKLISSVDYLRESFVGTLERCLQSLEKSQDVSVHITSNYLKQILNAAYHVEVTFHSGSSVTRMLWEQIKQIIQRITWVSPPAITLEWKRKVAQEAIESLSASKLAKSICSQFRTRLNSSHEAFAASLRQLEAGHSGRLEKTEDLWLRVRKDHAPRLARLSLESCSLQDVLLHRKPKLGQELGRGQYGVVYLCDNWGGHFPCALKSVVPPDEKHWNDLALEFHYMRSLPKHERLVDLHGSVIDYNYGGGSSIAVLLIMERLHRDLYTGLKAGLTLETRLQIALDVVEGIRFLHSQGLVHRDIKLKNVLLDKQNRAKITDLGFCKPEAMMSGSIVGTPIHMAPELFTGKYDNSVDVYAFGILFWYICSGSVKLPEAFERCASKDHLWNNVRRGARPERLPVFDEECWQLMEACWDGDPLKRPLLGIVQPMLQGIMNRLCKSNSEQPNRGLDDST [DSTYK]	0.0887	-0.242
MSELSDEASEPELLNRSLSMWHGLGTQVSGEELDVPLDLHTAASIGQYEVVKECVQRRELDLNKKNGGGWTPLMYASYIGHDTIVHLLLEAGVSVNVPTPEGQTPLMLASSCGNESIAYFLLQQGAELEMKDIQGWTALFHCTSAGHQHMVRFLLDSGANANVREPICGFTPLMEAAAAGHEIIVQYFLNHGVKVDARDHSGATARMLAKQYGHMKIVALMDTYSPSLPKSLYRSPEKYEDLSSSDESCPAPQRQRPCRKKGVSIHEGPRALARITGIGLGGRAPRPRYEQAPPRGYVTFNSSGENPLEEEGLCCRDVTSPINERDVESSSSSSSREEHAFCANLGPVQSSSSSEGLARAQGLSSEASVESNEDSDHACKSSARKQAKSYMKTKNPDSQWPPRAATDREGFLAESSPQTQRAPYSGPQDLAALLEQIGCLKYLQVFEEQDVDLRIFLTLTESDLKEIGITLFGPKRKMTSAIARWHSSARPPGDALELAYADRLEAEMQELAIQLHKRCEEVEATRGQVCQEQELRAVVESCLLEQDRAREDLQARLRETWALARDAALVLDQLRACQAELSSRVRQDQPPGAATLGLAVPPADSKGWQASLQAMSLPELSGALEDRVREMGQALCLVTQSLEKLQVLNGKKWRET [ANKS3]	-0.0739	0.0304
MKLLRRAWRRRAALGLGTLALCGAALLYLARCAAEPGDPRAMSGRSPPPPAPARAAAFLAVLVASAPRAAERRSVIRSTWLARRGAPGDVWARFAVGTAGLGAEERRALEREQARHGDLLLLPALRDAYENLTAKVLAMLAWLDEHVAFEFVLKADDDSFARLDALLAELRAREPARRRRLYWGFFSGRGRVKPGGRWREAAWQLCDYYLPYALGGGYVLSADLVHYLRLSRDYLRAWHSEDVSLGAWLAPVDVQREHDPRFDTEYRSRGCSNQYLVTHKQSLEDMLEKHATLAREGRLCKREVQLRLSYVYDWSAPPSQCCQRREGIP [B3GALT6]	-0.748	0.135
MAGALVRKAADYVRSKDFRDYLMSTHFWGPVANWGLPIAAINDMKKSPEIISGRMTFALCCYSLTFMRFAYKVQPRNWLLFACHATNEVAQLIQGGRLIKHEMTKTASA [MPC1]	-0.461	-0.165
MAPVSGSRSPDREASGSGGRRRSSSKSPKPSKSARSPRGRRSRSHSCSRSGDRNGLTHQLGGLSQGSRNQSYRSRSRSRSRERPSAPRGIPFASASSSVYYGSYSRPYGSDKPWPSLLDKEREESLRQKRLSERERIGELGAPEVWGLSPKNPEPDSDEHTPVEDEEPKKSTTSASTSEEEKKKKSSRSKERSKKRRKKKSSKRKHKKYSEDSDSDSDSETDSSDEDNKRRAKKAKKKEKKKKHRSKKYKKKRSKKSRKESSDSSSKESQEEFLENPWKDRTKAEEPSDLIGPEAPKTLTSQDDKPLNYGHALLPGEGAAMAEYVKAGKRIPRRGEIGLTSEEIASFECSGYVMSGSRHRRMEAVRLRKENQIYSADEKRALASFNQEERRKRENKILASFREMVYRKTKGKDDK [NKAP]	-0.301	0.107
MGIQGLLQFIKEASEPIHVRKYKGQVVAVDTYCWLHKGAIACAEKLAKGEPTDRYVGFCMKFVNMLLSHGIKPILVFDGCTLPSKKEVERSRRERRQANLLKGKQLLREGKVSEARECFTRSINITHAMAHKVIKAARSQGVDCLVAPYEADAQLAYLNKAGIVQAIITEDSDLLAFGCKKVILKMDQFGNGLEIDQARLGMCRQLGDVFTEEKFRYMCILSGCDYLSSLRGIGLAKACKVLRLANNPDIVKVIKKIGHYLKMNITVPEDYINGFIRANNTFLYQLVFDPIKRKLIPLNAYEDDVDPETLSYAGQYVDDSIALQIALGNKDINTFEQIDDYNPDTAMPAHSRSHSWDDKTCQKSANVSSIWHRNYSPRPESGTVSDAPQLKENPSTVGVERVISTKGLNLPRKSSIVKRPRSAELSEDDLLSQYSLSFTKKTKKNSSEGNKSLSFSEVFVPDLVNGPTNKKSVSTPPRTRNKFATFLQRKNEESGAVVVPGTRSRFFCSSDSTDCVSNKVSIQPLDETAVTDKENNLHESEYGDQEGKRLVDTDVARNSSDDIPNNHIPGDHIPDKATVFTDEESYSFESSKFTRTISPPTLGTLRSCFSWSGGLGDFSRTPSPSPSTALQQFRRKSDSPTSLPENNMSDVSQLKSEESSDDESHPLREEACSSQSQESGEFSLQSSNASKLSQCSSKDSDSEESDCNIKLLDSQSDQTSKLRLSHFSKKDTPLRNKVPGLYKSSSADSLSTTKIKPLGPARASGLSKKPASIQKRKHHNAENKPGLQIKLNELWKNFGFKKDSEKLPPCKKPLSPVRDNIQLTPEAEEDIFNKPECGRVQRAIFQ [EXO1]	-0.442	0.136
MAAELVEAKNMVMSFRVSDLQMLLGFVGRSKSGLKHELVTRALQLVQFDCSPELFKKIKELYETRYAKKNSEPAPQPHRPLDPLTMHSTYDRAGAVPRTPLAGPNIDYPVLYGKYLNGLGRLPAKTLKPEVRLVKLPFFNMLDELLKPTELVPQNNEKLQESPCIFALTPRQVELIRNSRELQPGVKAVQVVLRICYSDTSCPQEDQYPPNIAVKVNHSYCSVPGYYPSNKPGVEPKRPCRPINLTHLMYLSSATNRITVTWGNYGKSYSVALYLVRQLTSSELLQRLKTIGVKHPELCKALVKEKLRLDPDSEIATTGVRVSLICPLVKMRLSVPCRAETCAHLQCFDAVFYLQMNEKKPTWMCPVCDKPAPYDQLIIDGLLSKILSECEDADEIEYLVDGSWCPIRAEKERSCSPQGAILVLGPSDANGLLPAPSVNGSGALGSTGGGGPVGSMENGKPGADVVDLTLDSSSSSEDEEEEEEEEEDEDEEGPRPKRRCPFQKGLVPAC [PIAS4]	0.228	-0.116
